The values below come from patent US20210102001A1 (CHIMAGEN BIOSCIENCES, published 2021).

Read-outs that look alike come from different tables or passages of the source.

Experiment [1] has as its target T1, human CD19 (His-tagged) (human, UniProt P15391 20-291).
T1 construct: Captured on chips carrying anti-histidine antibodies
T1 sequence (looked up): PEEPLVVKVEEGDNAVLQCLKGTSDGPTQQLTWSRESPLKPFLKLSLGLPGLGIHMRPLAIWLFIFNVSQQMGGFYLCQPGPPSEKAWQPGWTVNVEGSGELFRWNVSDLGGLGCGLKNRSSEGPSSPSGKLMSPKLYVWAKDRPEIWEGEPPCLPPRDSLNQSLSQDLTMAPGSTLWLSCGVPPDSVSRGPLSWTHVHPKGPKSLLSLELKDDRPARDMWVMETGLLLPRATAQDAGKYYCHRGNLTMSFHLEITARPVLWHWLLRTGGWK
In words: SPR (Biacore); CD19 captured on anti-His antibody chip, antibody injected at 5 concentrations. How it is done: A series of sample antibodies were assayed for SPR (Surface Plasmon Resonance) signals upon human CD19 binding on the Biacore platform. Kₐ, Kd and KD were calculated from the experimental results and used to evaluate affinity of the antibodies for human CD19. CD19 molecules as ligands were immobilized to chips conjugated with anti-histine antibodies. Sample antibodies, at 5 different concentrations, were injected to the system to be analyzed. Anti-CD3 antibody UCHT1 and anti-CD19 antibody HD37 were also examined as #20 and #21, respectively. The results are shonw in FIG. 7 and Table 15.
Background: Surface plasmon resonance follows binding to a sensor surface in real time, without labels.

Another experiment has as its target T2, human CD3 (human, UniProt P07766 23-126).
T2 construct: not shown: A CD3 delta or gamma partner chain is possible if the reagent was a heterodimer
The experiment can be described thus: SPR (Biacore); CD3 captured on anti-His antibody chip, antibody injected at 5 concentrations. How it is done:
A series of sample antibodies were assayed for SPR (Surface Plasmon Resonance) signals upon human CD3 binding on the Biacore platform. Ka, Kd and KD were calculated from the experimental results and used to evaluate affinity of the antibodies for human CD3. CD3 molecules as ligands were immobilized to chips conjugated with anti-histine antibodies. Sample antibodies, at 5 different concentrations, were injected to the system to be analyzed.

The target of experiment [2] is T1, human CD19 (His-tagged). The experiment can be described thus: SPR (Biacore); CD19 captured on anti-His antibody chip, antibody injected at 5 concentrations. How it is done: Affinity: Affinity kinetics studies based on human CD19-binding assays. A series of sample antibodies were assayed for SPR (Surface Plasmon Resonance) signals upon human CD19 binding on the Biacore platform. Kₐ, Kd and KD were calculated from the experimental results and used to evaluate affinity of the antibodies for human CD19. CD19 molecules as ligands were immobilized to chips conjugated with anti-histine antibodies. Sample antibodies, at 5 different concentrations, were injected to the system to be analyzed.
This is another data set of the same source.

T2 sequence (P07766 23-126 limits assumed): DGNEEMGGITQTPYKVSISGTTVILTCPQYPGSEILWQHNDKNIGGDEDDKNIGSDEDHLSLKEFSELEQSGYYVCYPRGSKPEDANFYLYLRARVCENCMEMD

B1: Antibody #25, CD19×CD3 DICAD (bispecific antibody, name in Kabat numbering)
chain 1: DIQLTQSPASLAVSLGQRATISCKASQSVDYDGDSYLNWYQDIPGQPPKLLIYDASNLVSGIPPRFSGSGSGTDFTLNIHPVEKVDAATYHCQQSTEDPWTFGGGTKLEIKGGSGGSGGSEVQLVESGGGLVQPGGSLRLSCAASGYSFTGYTMNWVRDAPGKCLEWVALINPYKGVSTYNQKFKDRFTISVDKSKNTAYLQMNSLRAEDTAVYYCARSGYYGDSDWYFDVWGQGTLVTVSS
chain 2: DIQMTQSPSSLSASVGDRVTITCRASQDIRNYLNWYQKKPGKAPKLLIYYTSRLESGVPSRFSGSGSGTDYTLTISSLQPEDFATYYCQQGNTLPWTFGCGTKVEIKGGSGGSGGSQVQLQQSGAELVRPGSSVKISCKASGYAFSSYWMNWVKKRPGQGLEWIGQIWPGDGDTNYNGKFKGKATLTADESSSTAYMQLSSLASEDSAVYFCARRETTTVGRYYYAMDYWGQGTSVTVSS
notes: Same mutations as #9, with the 9-residue linker; also called 025; Sample25; not shown: hinge-CH2-CH3
The term Kd denotes the concentration at which binding is half-saturated. With B1, the Kd with human CD19 (His-tagged) [1] came out at 1 nM; in the experiment with human CD3, 34.9 nM.

B2: Antibody #43, CD19×CD3 DICAD (bispecific antibody)
chain 1: DIQLTQSPASLAVSLGQRATISCKASQSVDYDGDSYLNWYQQIPGQPPKLLIYDASNLVSGIPPRFSGSGSGTDFTLNIHPVEKVDAATYHCQQSTEDPWTFGGGTKLEIKGGSGGSGGSEVQLVESGGGLVQPGGSLRLSCAASGYSFTGYTMNWVRDAPGKCLEWVALINPYKGVSTYNQKFKDRFTISVDKSKNTAYLQMNSLRAEDTAVYYCARSGYYGDSDWYFDVWGQGTLVTVSS
chain 2: DIQMTQSPSSLSASVGDRVTITCRASQDIRNYLNWYQKKPGKAPKLLIYYTSRLESGVPSRFSGSGSGTDYTLTISSLQPEDFATYYCQQGNTLPWTFGCGTKVEIKGGSGGSGGSQVQLQQSGAELVRPGSSVKISCKASGYAFSSYWMNWVKQRPGQGLEWIGQIWPGDGDTNYNGKFKGKATLTADESSSTAYMQLSSLASEDSAVYFCARRETTTVGRYYYAMDYWGQGTSVTVSS
notes: also called 043; Sample43; not shown: hinge-CH2-CH3
On to B2, for which the Kd turned out to be 0.537 nM with human CD19 (His-tagged) [1] and 269 nM in the experiment with human CD3.

B3: Antibody #1, CD19×CD3 Di-Diabody from HD37 and UCHT1, no interface mutations (bispecific antibody)
chain 1: DIQLTQSPASLAVSLGQRATISCKASQSVDYDGDSYLNWYQQIPGQPPKLLIYDASNLVSGIPPRFSGSGSGTDFTLNIHPVEKVDAATYHCQQSTEDPWTFGGGTKLEIKRTVAAEVQLVESGGGLVQPGGSLRLSCAASGYSFTGYTMNWVRQAPGKGLEWVALINPYKGVSTYNQKFKDRFTISVDKSKNTAYLQMNSLRAEDTAVYYCARSGYYGDSDWYFDVWGQGTLVTVSS
chain 2: DIQMTQSPSSLSASVGDRVTITCRASQDIRNYLNWYQQKPGKAPKLLIYYTSRLESGVPSRFSGSGSGTDYTLTISSLQPEDFATYYCQQGNTLPWTFGQGTKVEIKRTVAAQVQLQQSGAELVRPGSSVKISCKASGYAFSSYWMNWVKQRPGQGLEWIGQIWPGDGDTNYNGKFKGKATLTADESSSTAYMQLSSLASEDSAVYFCARRETTTVGRYYYAMDYWGQGTSVTVSS
notes: Peptide 1: CD19VL-linker-CD3VH-hinge-CH2-CH3; also called 001; Sample01; not shown: hinge-CH2-CH3
In the experiment with human CD19 (His-tagged) [1], B3 registered a Kd of 0.769 nM.

B4: Antibody #9, CD19×CD3 DICAD (bispecific antibody, name in Kabat numbering)
chain 1: DIQLTQSPASLAVSLGQRATISCKASQSVDYDGDSYLNWYQDIPGQPPKLLIYDASNLVSGIPPRFSGSGSGTDFTLNIHPVEKVDAATYHCQQSTEDPWTFGGGTKLEIKRTVAAEVQLVESGGGLVQPGGSLRLSCAASGYSFTGYTMNWVRDAPGKCLEWVALINPYKGVSTYNQKFKDRFTISVDKSKNTAYLQMNSLRAEDTAVYYCARSGYYGDSDWYFDVWGQGTLVTVSS
chain 2: DIQMTQSPSSLSASVGDRVTITCRASQDIRNYLNWYQKKPGKAPKLLIYYTSRLESGVPSRFSGSGSGTDYTLTISSLQPEDFATYYCQQGNTLPWTFGCGTKVEIKRTVAAQVQLQQSGAELVRPGSSVKISCKASGYAFSSYWMNWVKKRPGQGLEWIGQIWPGDGDTNYNGKFKGKATLTADESSSTAYMQLSSLASEDSAVYFCARRETTTVGRYYYAMDYWGQGTSVTVSS
notes: also called 009; not shown: hinge-CH2-CH3
Turning to B4, the Kd was 0.26 nM in the experiment with human CD19 (His-tagged) [1] and 172 nM with human CD3.

B5: HD37, anti-CD19 parental antibody (#21) (antibody, V domains shown)
VH: QVQLQQSGAELVRPGSSVKISCKASGYAFSSYWMNWVKQRPGQGLEWIGQIWPGDGDTNYNGKFKGKATLTADESSSTAYMQLSSLASEDSAVYFCARRETTTVGRYYYAMDYWGQGTSVTVSS
VL: DIQLTQSPASLAVSLGQRATISCKASQSVDYDGDSYLNWYQQIPGQPPKLLIYDASNLVSGIPPRFSGSGSGTDFTLNIHPVEKVDAATYHCQQSTEDPWTFGGGTKLEIK
notes: also called 021
Regarding B5, the Kd in the experiment with human CD19 (His-tagged) [2] was found to be 3.81 nM; with human CD19 (His-tagged) [1], 0.537 nM. Besides, the binding result with human CD3 was “no binding”.

B6: Antibody #50, TRIAD CD19×CD3 (Fab arm anti-CD19) (bispecific antibody)
chain 1: DIQMTQSPSSLSASVGDRVTITCRASQDIRNYLNWYQKKPGKAPKLLIYYTSRLESGVPSRFSGSGSGTDYTLTISSLQPEDFATYYCQQGNTLPWTFGCGTKVEIK
chain 2: QVQLQQSGAELVRPGSSVKISCKASGYAFSSYWMNWVKKRPGQGLEWIGQIWPGDGDTNYNGKFKGKATLTADESSSTAYMQLSSLASEDSAVYFCARRETTTVGRYYYAMDYWGQGTSVTVSS
chain 3: DIQLTQSPASLAVSLGQRATISCKASQSVDYDGDSYLNWYQDIPGQPPKLLIYDASNLVSGIPPRFSGSGSGTDFTLNIHPVEKVDAATYHCQQSTEDPWTFGGGTKLEIK
chain 4: EVQLVESGGGLVQPGGSLRLSCAASGYSFTGYTMNWVRDAPGKCLEWVALINPYKGVSTYNQKFKDRFTISVDKSKNTAYLQMNSLRAEDTAVYYCARSGYYGDSDWYFDVWGQGTLVTVSS
chain 5: QVQLQQSGAELVRPGSSVKISCKASGYAFSSYWMNWVKQRPGQGLEWIGQIWPGDGDTNYNGKFKGKATLTADESSSTAYMQLSSLASEDSAVYFCARRETTTVGRYYYAMDYWGQGTSVTVSS
chain 6: DIQLTQSPASLAVSLGQRATISCKASQSVDYDGDSYLNWYQQIPGQPPKLLIYDASNLVSGIPPRFSGSGSGTDFTLNIHPVEKVDAATYHCQQSTEDPWTFGGGTKLEIK
Turning to B6, the equilibrium dissociation constant (Kd) in the experiment with human CD19 (His-tagged) [2] was found to be 1.73 nM.

B7: Antibody #54, TRIAD CD19×CD3 (Fab arm anti-CD19) (bispecific antibody)
chain 1: DIQLTQSPASLAVSLGQRATISCKASQSVDYDGDSYLNWYQKIPGQPPKLLIYDASNLVSGIPPRFSGSGSGTDFTLNIHPVEKVDAATYHCQQSTEDPWTFGCGTKLEIK
chain 2: EVQLVESGGGLVQPGGSLRLSCAASGYSFTGYTMNWVRKAPGKGLEWVALINPYKGVSTYNQKFKDRFTISVDKSKNTAYLQMNSLRAEDTAVYYCARSGYYGDSDWYFDVWGQGTLVTVSS
chain 3: DIQMTQSPSSLSASVGDRVTITCRASQDIRNYLNWYQDKPGKAPKLLIYYTSRLESGVPSRFSGSGSGTDYTLTISSLQPEDFATYYCQQGNTLPWTFGQGTKVEIK
chain 4: QVQLQQSGAELVRPGSSVKISCKASGYAFSSYWMNWVKDRPGQCLEWIGQIWPGDGDTNYNGKFKGKATLTADESSSTAYMQLSSLASEDSAVYFCARRETTTVGRYYYAMDYWGQGTSVTVSS
chain 5: QVQLQQSGAELVRPGSSVKISCKASGYAFSSYWMNWVKQRPGQGLEWIGQIWPGDGDTNYNGKFKGKATLTADESSSTAYMQLSSLASEDSAVYFCARRETTTVGRYYYAMDYWGQGTSVTVSS
chain 6: DIQLTQSPASLAVSLGQRATISCKASQSVDYDGDSYLNWYQQIPGQPPKLLIYDASNLVSGIPPRFSGSGSGTDFTLNIHPVEKVDAATYHCQQSTEDPWTFGGGTKLEIK
Turning to B7, the Kd with human CD19 (His-tagged) [2] was 0.806 nM.
